# Reference: patent publication US20220054706A1 (KING ABDULLAH UNIVERSITY OF SCIENCE AND TECHNOLOGY, published 2022)
# B1: Ac-Ile-Val-Phe-Lys-NH2 (IVFK) (peptide)
# peptide: Ac-IVFK-NH2
# notes: Synthetic self-assembling tetrapeptide; In the NMR experiment it stood at 10 mg in 900 uL of 1 mM DSS plus 100 uL D2O; also called aromatic IVFK
# Target: the molecule itself
# Test: 2D NMR (NOESY/TOCSY) of the self-assembling peptide in 90% H2O-10% D2O
# Experimental: 2D NMR of peptide solution was carried out to study the spatial structure during the assembly process. These NMR spectra were recorded on a Bruker Avance III 600 MHz equipped with a 5 mm Z-gradient SmartProbe BB(F)-H-D (BrukerBioSpin™, Rheinstetten, Germany). The samples were prepared from 10 mg of peptide in a mixture of 900 μL of 1 mM 2,2-Dimethyl-2-silapentane-5-sulfonate (DSS) and 100 μL of D₂O. ¹H-NMR was recorded by collecting 32 scans using excitation sculping with gradients pulse program (zgesgp) for water suppression.¹⁰⁹ COSY and TOCSY were then conducted to see the correlation between hydrogens that were coupled to each other. COSY was performed using a time domain of 4096 (F2)×512 (F1), 16 number of scans, a pulse program of cosydfgpph19, and 3-9-19 pulse sequence for water suppression.¹¹⁰⁻¹¹² For TOCSY, the parameters with time domain of 8192 (F2)×512 (F1), 16 number of scans, a pulse program of dipsi2gpph19, and 3-9-19 pulse sequence for water suppression were set. Finally, the NOESY acquisition was carried out with a time-domain size of 2048 (F2)×512 (F1), 32 scan numbers, a pulse program of noesyesgpph19, a mixing time of 400 ms, and water suppression using 3-9-19 pulse sequence. Broker Topspin 3.5pI7 software was used in all NMR experiments for both data collection and spectral analyses.
protein,measurement,value
B1,binding result,binds
